Experimental data reported in article PMC9482650, “Quantitative fragmentomics allow affinity mapping of interactomes” (Nature Communications, 2022).

T1: APBA3_1, O96018
T1 sequence (O96018 389-490, limits assumed, looked up): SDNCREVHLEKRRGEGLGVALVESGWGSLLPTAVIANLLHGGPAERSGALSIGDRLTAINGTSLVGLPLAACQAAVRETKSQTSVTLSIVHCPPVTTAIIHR

T2: DFNB31_1, Q9P202
T2 sequence (Q9P202 135-233, limits assumed, looked up): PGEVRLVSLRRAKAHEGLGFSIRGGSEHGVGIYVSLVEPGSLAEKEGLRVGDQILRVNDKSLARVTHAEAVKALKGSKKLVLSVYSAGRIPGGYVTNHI

T3: DFNB31_3, Q9P202
T3 sequence (Q9P202 811-907, limits assumed, looked up): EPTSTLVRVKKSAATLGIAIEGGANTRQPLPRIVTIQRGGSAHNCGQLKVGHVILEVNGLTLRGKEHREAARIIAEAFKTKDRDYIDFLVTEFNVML

T4: DLG3_3, Q92796
T4 sequence (Q92796 374-475, limits assumed, looked up): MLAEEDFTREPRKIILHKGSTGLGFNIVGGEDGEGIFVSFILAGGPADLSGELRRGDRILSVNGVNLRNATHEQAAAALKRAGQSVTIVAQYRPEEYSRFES

T5: LNX2_2, Q8N448
T5 sequence (Q8N448 334-432, limits assumed, looked up): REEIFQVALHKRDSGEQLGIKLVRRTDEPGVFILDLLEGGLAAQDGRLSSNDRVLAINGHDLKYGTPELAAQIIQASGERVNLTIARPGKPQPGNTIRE

T6: MPDZ_12, O75970
T6 sequence (O75970 1857-1958, limits assumed, looked up): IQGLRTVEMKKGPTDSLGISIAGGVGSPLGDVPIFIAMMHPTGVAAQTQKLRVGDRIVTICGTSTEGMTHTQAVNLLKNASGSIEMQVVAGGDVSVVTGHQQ

T7: MPP2, Q14168
T7 sequence (Q14168 180-250, limits assumed, looked up): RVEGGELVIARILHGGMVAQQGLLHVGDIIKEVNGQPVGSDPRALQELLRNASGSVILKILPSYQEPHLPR

T8: MPP6, Q9NZW5
T8 sequence (Q9NZW5 125-219, limits assumed, looked up): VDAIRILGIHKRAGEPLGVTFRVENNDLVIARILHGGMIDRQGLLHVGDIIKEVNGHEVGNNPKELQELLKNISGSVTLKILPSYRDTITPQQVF

T9: PDZD7_3, Q9H5P4
T9 sequence (Q9H5P4 857-944, limits assumed, looked up): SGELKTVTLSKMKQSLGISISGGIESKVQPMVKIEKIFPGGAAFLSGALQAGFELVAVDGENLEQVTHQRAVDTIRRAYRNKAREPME

T10: SHANK1, Q9Y566
T10 sequence (Q9Y566 658-767, limits assumed, looked up): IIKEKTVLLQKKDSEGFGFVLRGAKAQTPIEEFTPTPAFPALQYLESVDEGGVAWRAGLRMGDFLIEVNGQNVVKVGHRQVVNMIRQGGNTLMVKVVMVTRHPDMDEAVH


Legend:
Assay in all cases: holdup assay
Parameters in all cases: key: below the threshold = too weak to quantify, mostly under pKd 3.1 to 4
Details in all cases: plain residues with an end cap or a label only (N-terminal biotin on a linker: ado-ado)
APBA3_1, O96018 = molecular target: T1, APBA3_1, O96018
CASK, O14936 = molecular target: CASK, O14936
Sequence of CASK, O14936 (O14936 487-570): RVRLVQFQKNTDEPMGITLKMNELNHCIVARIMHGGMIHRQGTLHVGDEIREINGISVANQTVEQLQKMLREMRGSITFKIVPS

DFNB31_1, Q9P202 = molecular target: T2, DFNB31_1, Q9P202
DFNB31_3, Q9P202 = molecular target: T3, DFNB31_3, Q9P202
DLG3_3, Q92796 = molecular target: T4, DLG3_3, Q92796
DLG4_1, P78352 = molecular target: DLG4_1, P78352
Sequence of DLG4_1, P78352 (P78352 62-152): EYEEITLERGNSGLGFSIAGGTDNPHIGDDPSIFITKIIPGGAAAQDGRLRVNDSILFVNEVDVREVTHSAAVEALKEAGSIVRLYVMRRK

DLG4_2, P78352 = molecular target: DLG4_2, P78352
Sequence of DLG4_2, P78352 (P78352 155-259): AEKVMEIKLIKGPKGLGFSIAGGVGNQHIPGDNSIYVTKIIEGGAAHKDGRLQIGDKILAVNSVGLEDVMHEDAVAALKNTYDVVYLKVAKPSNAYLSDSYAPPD

FRMPD3, Q5JV73 = molecular target: FRMPD3, Q5JV73
Sequence of FRMPD3, Q5JV73 (Q5JV73 12-100): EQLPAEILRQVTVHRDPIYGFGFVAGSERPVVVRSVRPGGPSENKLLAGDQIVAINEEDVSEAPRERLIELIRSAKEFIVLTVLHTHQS

GRIP2_3, Q9C0E4 = molecular target: GRIP2_3, Q9C0E4
Sequence of GRIP2_3, Q9C0E4 (Q9C0E4 238-339): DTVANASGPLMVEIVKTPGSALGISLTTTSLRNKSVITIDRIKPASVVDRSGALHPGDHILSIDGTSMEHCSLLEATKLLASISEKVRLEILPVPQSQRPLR

GRIP2_4, Q9C0E4 = molecular target: GRIP2_4, Q9C0E4
Sequence of GRIP2_4, Q9C0E4 (Q9C0E4 446-548): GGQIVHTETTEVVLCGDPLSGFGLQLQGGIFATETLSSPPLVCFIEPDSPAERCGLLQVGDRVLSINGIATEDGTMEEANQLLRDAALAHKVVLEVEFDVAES

GRIP2_5, Q9C0E4 = molecular target: GRIP2_5, Q9C0E4
Sequence of GRIP2_5, Q9C0E4 (Q9C0E4 544-642): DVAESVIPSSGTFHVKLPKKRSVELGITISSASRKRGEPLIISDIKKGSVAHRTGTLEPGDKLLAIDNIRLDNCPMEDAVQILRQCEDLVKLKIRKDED

GRIP2_6, Q9C0E4 = molecular target: GRIP2_6, Q9C0E4
Sequence of GRIP2_6, Q9C0E4 (Q9C0E4 648-740): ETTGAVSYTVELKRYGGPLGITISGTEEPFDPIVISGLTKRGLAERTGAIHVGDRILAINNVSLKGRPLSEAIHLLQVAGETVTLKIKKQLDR

IL16_3, Q14005 = molecular target: IL16_3, Q14005
Sequence of IL16_3, Q14005 (Q14005 1107-1207): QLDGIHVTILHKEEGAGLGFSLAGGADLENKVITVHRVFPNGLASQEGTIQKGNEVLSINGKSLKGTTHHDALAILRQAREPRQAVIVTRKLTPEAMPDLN

Inadl_1, Q8NI35 = molecular target: Inadl_1, Q8NI35
Sequence of Inadl_1, Q8NI35 (Q8NI35 113-229): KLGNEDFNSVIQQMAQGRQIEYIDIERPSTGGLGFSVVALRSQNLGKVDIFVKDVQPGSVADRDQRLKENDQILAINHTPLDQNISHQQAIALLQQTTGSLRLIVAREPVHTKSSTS

Inadl_8, Q8NI35 = molecular target: Inadl_8, Q8NI35
Sequence of Inadl_8, Q8NI35 (Q8NI35 1425-1530): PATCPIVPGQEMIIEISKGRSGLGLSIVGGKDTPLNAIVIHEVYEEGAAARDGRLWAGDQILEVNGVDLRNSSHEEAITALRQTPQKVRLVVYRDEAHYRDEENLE

LDB3, O75112 = molecular target: LDB3, O75112
Sequence of LDB3, O75112 (O75112 1-94): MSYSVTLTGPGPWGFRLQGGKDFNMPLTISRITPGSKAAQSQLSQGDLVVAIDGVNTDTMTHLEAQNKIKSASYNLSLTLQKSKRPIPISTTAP

LIMK2, P53671 = molecular target: LIMK2, P53671
Sequence of LIMK2, P53671 (P53671 143-248): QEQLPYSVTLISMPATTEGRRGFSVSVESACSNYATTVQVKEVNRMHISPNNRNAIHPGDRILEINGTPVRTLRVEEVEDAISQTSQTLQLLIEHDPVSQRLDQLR

LNX2_2, Q8N448 = molecular target: T5, LNX2_2, Q8N448
MAGI2_4, Q86UL8 = molecular target: MAGI2_4, Q86UL8
Sequence of MAGI2_4, Q86UL8 (Q86UL8 772-865): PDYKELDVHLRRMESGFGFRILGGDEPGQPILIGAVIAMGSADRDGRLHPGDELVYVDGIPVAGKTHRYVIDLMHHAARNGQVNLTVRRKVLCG

MAGI2_6, Q86UL8 = molecular target: MAGI2_6, Q86UL8
Sequence of MAGI2_6, Q86UL8 (Q86UL8 1141-1229): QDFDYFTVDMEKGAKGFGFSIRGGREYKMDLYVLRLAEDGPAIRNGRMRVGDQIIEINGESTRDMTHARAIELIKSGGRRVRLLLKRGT

MAGI3_2, Q5TCQ9 = molecular target: MAGI3_2, Q5TCQ9
Sequence of MAGI3_2, Q5TCQ9 (Q5TCQ9 398-503): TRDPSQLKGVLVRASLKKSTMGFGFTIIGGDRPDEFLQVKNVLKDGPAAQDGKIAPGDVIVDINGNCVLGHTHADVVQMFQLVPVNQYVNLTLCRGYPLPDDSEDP

MPDZ_12, O75970 = molecular target: T6, MPDZ_12, O75970
MPP2, Q14168 = molecular target: T7, MPP2, Q14168
MPP6, Q9NZW5 = molecular target: T8, MPP6, Q9NZW5
PDZD7_3, Q9H5P4 = molecular target: T9, PDZD7_3, Q9H5P4
PTPN3, P26045 = molecular target: PTPN3, P26045
Sequence of PTPN3, P26045 (P26045 505-587): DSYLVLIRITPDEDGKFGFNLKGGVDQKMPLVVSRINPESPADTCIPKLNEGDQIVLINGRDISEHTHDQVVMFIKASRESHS

SCRIB_3, Q14160 = molecular target: SCRIB_3, Q14160
Sequence of SCRIB_3, Q14160 (Q14160 999-1103): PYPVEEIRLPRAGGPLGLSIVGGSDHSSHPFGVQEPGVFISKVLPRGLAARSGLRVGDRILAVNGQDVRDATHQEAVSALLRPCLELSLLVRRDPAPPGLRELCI

SHANK1, Q9Y566 = molecular target: T10, SHANK1, Q9Y566
TJP1_3, Q07157 = molecular target: TJP1_3, Q07157
Sequence of TJP1_3, Q07157 (Q07157 416-512): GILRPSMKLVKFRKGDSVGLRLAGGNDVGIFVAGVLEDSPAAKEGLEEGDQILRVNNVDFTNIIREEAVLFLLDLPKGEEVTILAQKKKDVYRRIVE

Row | Binder | pKd (APBA3_1, O96018) | pKd (CASK, O14936) | pKd (DFNB31_1, Q9P202) | pKd (DFNB31_3, Q9P202) | pKd (DLG3_3, Q92796) | pKd (DLG4_1, P78352) | pKd (DLG4_2, P78352) | pKd (FRMPD3, Q5JV73) | pKd (GRIP2_3, Q9C0E4) | pKd (GRIP2_4, Q9C0E4) | pKd (GRIP2_5, Q9C0E4) | pKd (GRIP2_6, Q9C0E4) | pKd (IL16_3, Q14005) | pKd (Inadl_1, Q8NI35) | pKd (Inadl_8, Q8NI35) | pKd (LDB3, O75112) | pKd (LIMK2, P53671) | pKd (LNX2_2, Q8N448) | pKd (MAGI2_4, Q86UL8) | pKd (MAGI2_6, Q86UL8) | also measured
1 | KKTPVSRSHL [SLC22A3, O75751] | below the threshold | below the threshold | below the threshold | below the threshold | below the threshold | 3.55 | below the threshold | below the threshold | below the threshold | below the threshold | below the threshold | below the threshold | below the threshold | below the threshold | below the threshold | below the threshold | below the threshold | below the threshold | below the threshold | below the threshold | pKd (MAGI3_2, Q5TCQ9): below the threshold; pKd (MPDZ_12, O75970): below the threshold; pKd (MPP2, Q14168): below the threshold; pKd (MPP6, Q9NZW5): below the threshold; pKd (PDZD7_3, Q9H5P4): 3.91; pKd (PTPN3, P26045): below the threshold; pKd (SCRIB_3, Q14160): below the threshold; pKd (SHANK1, Q9Y566): 4.54; pKd (TJP1_3, Q07157): below the threshold
2 | HDDYFYHDEL [RCN2, Q14257] | below the threshold | below the threshold | below the threshold | below the threshold | below the threshold | 3.54 | below the threshold | below the threshold | below the threshold | below the threshold | below the threshold | below the threshold | below the threshold | below the threshold | below the threshold | 4.09 | below the threshold | below the threshold | below the threshold | 3.9 | pKd (MAGI3_2, Q5TCQ9): below the threshold; pKd (MPDZ_12, O75970): below the threshold; pKd (MPP2, Q14168): below the threshold; pKd (MPP6, Q9NZW5): 3.74; pKd (PDZD7_3, Q9H5P4): below the threshold; pKd (PTPN3, P26045): below the threshold; pKd (SCRIB_3, Q14160): 3.81; pKd (SHANK1, Q9Y566): below the threshold; pKd (TJP1_3, Q07157): below the threshold
3 | LPPPESESKV [KCNJ9, Q92806] | below the threshold | below the threshold | 4.01 | below the threshold | below the threshold | below the threshold | 3.67 | below the threshold | below the threshold | below the threshold | below the threshold | below the threshold | below the threshold | below the threshold | below the threshold | below the threshold | below the threshold | 3.52 | below the threshold | 3.48 | pKd (MAGI3_2, Q5TCQ9): 4; pKd (MPDZ_12, O75970): below the threshold; pKd (MPP2, Q14168): below the threshold; pKd (MPP6, Q9NZW5): below the threshold; pKd (PDZD7_3, Q9H5P4): below the threshold; pKd (PTPN3, P26045): 4.4; pKd (SCRIB_3, Q14160): below the threshold; pKd (SHANK1, Q9Y566): below the threshold; pKd (TJP1_3, Q07157): below the threshold
